According to the supplement of paper PMC9942255:

These sequences were tested on Bacillus subtilis DB104 (SP-AmyQ fusion secretion) (assay: AmyQ secretion efficiency, weighted average sort bin (1 = best secretion, 10 = worst) (bin number (weighted average, 1-10)); higher = lower secretion efficiency).
Method in brief: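 With fluorescein-starch as substrate, a B. subtilis DB104 library expressing mature AmyQ fused to designed signal peptides (integrated at amyE) was encapsulated at about 0.3 cells per ~65 nL alginate bead. After about 13 h at room temperature, beads were nile red stained, and occupied beads were sorted by large-particle flow cytometry into 10 equally populated bins by green/red fluorescence ratio. Illumina sequencing of the amplicons in each bin was used to calculate the secretion score, which is the read-frequency-weighted average bin number, normalised to beads per bin, with low-abundance sequences left out.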

Point of comparison: MKKWMITIAMSTYTYYTLFVFISPLKSHKT, AmyQ secretion efficiency 5.78. Against it:
- MGGGSFSIVFLILLLMLTLVVAPKEKAEAASS — lower, 1.53
- MLKKIALILCIAIVFFLLFFSAPASAHVS — lower, 3.76
- MKTLRTLCVLMILSGVIFFGLKIDCKDI — lower, 5.37
- MTKKAWFLPLVCVSGWLAPAASASAQTT — lower, 2.07
- MRNLTKTSLLLAGLCTAAQMVFVTHMSAEES — lower, 3.28
- MKNMSCKLVVSVTLFFSFLTIGPLAHRQNS — higher, 6.88
- MKKKQVMLALTAAAGLGLTALHSAPAVKAAPL — lower, 1.99
- MRKTIFAFLTGLMMFGTITAISASPD — lower, 5.52
- MKKRKVMLATALFLGLTPAGANAADL — lower, 4.31
- MKKWMITIAMLILAGIALFVFISPTKSHKT — higher, 7.06
- MPIKKKVMMCLAVTLVFGSMSFPTLTNSGNFKE — lower, 5.35
- MTKKAWFLPLVCVLLIVSWLASAASASAQTT — lower, 2.08
- MKLAKRVKRRKRKTTLAITAKAKEL — higher, 7.36
- MILITINIITMFIAAAVISLTGTAEAAEK — lower, 4.83
- MKKRKRRNFKRFIAAFLVLALMISLVPADVLAEED — lower, 3.75
- MKKRFFGPIILAFILFAGAIAKKK — higher, 7.24
- MKSKGSIMACLILFSFTITTFINTETISMFSN — higher, 7.38
- MKKFFGPIILAFILFAGAIAIPS — higher, 6.93
- MKWMCSICCAAVLLAGGAAQGEAV — lower, 3.2
- MKRFILVLSFLSIIVLVTSASSFLAYPIQTNASPM — lower, 5.04
- MTMLRKIIGWILLLCIIPLFAFTVIMSGKEV — higher, 7.42
- MFMQIITATTAVVLGSTLFAGAASAQSI — lower, 3.83
- MGSTGSIMFACLILFSFTITTFINTETISAFSN — lower, 4.71
- MTMLRKIIGWILLLCIIPLFAFTVIASTKEV — higher, 7.17
- MTKKAWFLPLVCVLLISGWLAPAASLSAQTT — lower, 3.89
- MRSYIKVLTMCFLGLILFVPTALAAND — lower, 2.11
- MKVLLSALLLLLFARKKKKRASGKKL — higher, 6.15
- MKRMIVRMTLPLLIVCLAFSSFSASTRAASE — lower, 2.26
- MMTKSKLLLSCLALSTVFVATTIANAPTH — lower, 5.2
- MKKVLMAFIICLSLILSVLAAPPSGAKVESV — lower, 4.98
- MKKTIMSFVAVAALSTTAFGAHTSAKEI — lower, 2.69
- MKSKGSIMACLILFSFTITEISAFSN — higher, 6.82
- MLCVMMLLFSAIASFPVSAQIKDQ — lower, 5.57
- MNKKYFVLIVCIIFTSALFPTFSSVTTAQG — lower, 1.05
- MKRLCKKRKVFSLFLVLLPGKALGAVD — higher, 7.25
- MRKVLTMCFLGLILFVPTALADNS — lower, 2.17
- MTFTKVVGFLSVLGLAAVFPLTAQAEKA — lower, 3.02
- MKKTIMSFVAVAALSTTAFGAHVSAKEI — lower, 2.83
- MKKKLAAGLTASAIVGTTLVVTPAEEATI — higher, 6.94
- MKKKLAAGLTASAIVGTTLVVTPAEVATI — higher, 6.56
- MLTKRLLTIYIMLLGLIAWFPGASQAEEK — lower, 4.32
- MMKKGSLFFLLAGALTATVLFGTCAVDVPGIISPKTAEAASQ — lower, 3.32
- MKLSVKIAGVLTVAAAAMTAKMYFTAKGN — higher, 7.66
- MKLKKRVSMFLVALTMCGGLFVTVIIVAKAVKT — higher, 6.35
- MRPVFPLILSAVLFLSCFFGARQTESSASKR — lower, 3.91
- MKKRFSLKKRRGLLFGLTSPAFAAEK — higher, 8.62
- MKKWIYVVLVLSIAGIGGFSAFGPVTAVHAASS — lower, 2.96
- MKKAFILSAAAAVGLFTFTSVVGASAKEL — lower, 4.32
- MLMKVILAAFILVGSTLGAFSFSSDASAKHV — lower, 2
- MKKKLAAGLTASAIVGTTLVVTPEEAATI — higher, 5.83
- MKRITINIITMFIAAAVIVFSLTGTAEAAEK — lower, 2.39
- MKKKQVMLALTAAAGLGLTALHAKAAPL — lower, 2.9
- MKLSVKIAGVLTVAATAKMYATAKGN — higher, 7.17
- MKRIRIPMTLALGAALTIAPLSFLSAEEN — lower, 4.62
- MKKRLIQVMIMFTLLLRKRRSADAADS — higher, 6.79
- MKKVLMAFIICLSLILSTISSVLAAPPSGAKAESV — lower, 2.8
- MFGKLLLATSALTFSLSLVLPLDGHAKAQEV — lower, 3.02
- MMIKQCVICLSLLVFGTEDEEEEAHAEET — higher, 6.81
- MFNRLFRVCFLAALIMAFTLPNSVYNQKP — higher, 6.82
- MLKKKWVGLLAGCLAAGGFSYNAFATEN — lower, 4.85
- MKKRKRRVVLVLSIAGIGGFSVHAASS — higher, 7.17
- MKNMSCKLVVSVTLFFSFLTIGPLAHPQNS — lower, 5.55
- MKRTWNVCLTALLSVPFHAEAKKP — higher, 6.8
- MKVPKTMLLSTAAGLLLSLTATSTSAHYV — lower, 4.19
- MTGGVILAAFILVGSTLGAFSFSSDASAKHV — lower, 3.83
- MKNMSCKYQQGVTLFFSFLTIGPLAHAQNS — higher, 6.89
- MKKQIITATTAVVLGSTLFADDEASAQSI — lower, 2.17
- MKKRLIAPMLLSAASLAFFAALIFILLLTFMSGSAQAAAY — lower, 3.37
- MLCVMMLLFSAIASFPVSCQAKDQ — higher, 5.97
- MKKKLAAGLTASAIVGTTLVVTPTAAEAATI — lower, 2.99
- MFNRLFRVCFLAALIMAFTLPNSVYKQKP — higher, 6.24
- MKQGKFSVFLILLLMLAPKEKAEAASS — lower, 2.23
- MKIRKILLSSALSFGMLISAVPALMAGT — higher, 6.44
- MNFKKTVVSALSISALALKKRGVASAHEI — higher, 6.98
- MRKTIFAFLTGLMMFGTITAASASPF — lower, 4.61
- MIAYFGKCRKRRKRMFLGVLFGMQQANHG — higher, 7.55
- MPYLKRVRRRRRRGLFMSLFAVTATASAQTG — higher, 6.28
- MLCVMMLLFSAIASFPVSNQAKDQ — lower, 5.37
- MIKKLAAGLTASAIVGTTLVVTPAEAATI — lower, 2.3
- MKMKSGMEQAVSVLLLLSRLPVQASLTRK — higher, 7.01
- MSTTIIITATTAVVLGSTLFAGAASAQSI — lower, 2.61
- MKLRKVLTGSVLSLGLLVSASPAFATSD — lower, 2.17
- MKRSISIFITCLLITLLKRKKRRASPASAAGT — higher, 6.57
- MRKNRIKRKKVLSLGLLSFMVTPVSAASK — higher, 7.91
- MKKLLAAGIIGLLTVQTDQPSFAAEK — lower, 4.21
- MNLRKILLSSALSLGMLVSAAPVLLTSS — higher, 7.26
- MKRLLVSLRVWMVFLMNWVTPDRKTAAYAVY — higher, 7.68
- MAIIIAIIAAVIVIAALITFNVANASPG — lower, 5.63
- MAAQTDYKKQVVGILLSLAFVLFVFSPSERHE — lower, 5.34
- MKKAAAVLLSLGGFSYGAGHVAEAKTK — higher, 6.38
- MKSKWMSGLLLVAVGFSFAIVMVHAGET — lower, 5.38
- MPIKKKVMMCSKVTLVFGSMSFPTLTNSGGFKE — higher, 7.22
- MKKKKRYSQRFLVALTMCGGLFVTPAKAVKT — higher, 6.94
- MGLGKKLSVAVAASFMSLSISLDEEDDEVQAAEG — lower, 1.62
- MKQIMIFLTSFMLLAMTGQTCLAKDV — lower, 3.75
- MKLAKRVRRKRPSTTLAITAKAKEL — higher, 6.87
- MFKKQSRATSALTFSLSLVLPLDGHAKAQEV — higher, 6.63
- MKKLAAGLTASAIVGTTLVVTPAEAATI — lower, 2.27
- MGLGKKLSVAVAASFMSLSISLPGVQKAEG — lower, 3.62
- MKSCKQLRRCKRRRILLLIPSVSFAADS — higher, 7.57
- MTMLRKKTGWILLLCIIPLFAFTVIASGKEV — lower, 3.88
- MKKQIKKKRKKVVLGSTLFAGAASAQSI — higher, 7.55
- MKLWMRKTLVVLFTIVTFGLVSPPAALMGDKP — lower, 4.12
- MKKLLAAGIIGLLTVRKKSPSFAAEK — higher, 8.11
- MKLAKRVSALTPSTTLAITAKCKEL — higher, 7.76
- MRKRKKKSMLTVMIASLFIFSSQALAVQY — higher, 6.79
- MKKWLIIAVSLAIAIVLFMYTKGEPKAAGM — lower, 5.65
- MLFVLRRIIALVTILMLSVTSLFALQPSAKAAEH — lower, 1.93
- MRKKLKWLSFRRRRIILLFLFKYQFSNNDS — higher, 7.16
- MKSKWMSGLLLVAVGFSFTQVMVHHGET — higher, 6.33
- MNILLILLSSALSFGMLISAVPALAAGT — lower, 2.56
- MRSKKLWISLLFALTLIFTMAFSNMSDQAAGK — lower, 2.84
- MKKVLMAFIICLSVLAAPPSGAKAESV — lower, 2.14
- MGRIKTKITILLVLLLLLAGTYMYIN — higher, 6.42
- MLSIWIGMLAAAVLLLMVPKVSLADAA — higher, 6.86
- MKKAAAVLLSLGLVFVGFSYGAGHVAEAKTK — lower, 1.71
- MNTAIIIAIIAAVIVIAALITFNVRNASPG — higher, 8.06
- MRSYIKFNFIISVLTMCFLGLILFVPTALADNS — lower, 1.36
- MLCVMMLLFSAIAAFTVTAQAKDQ — higher, 6.83
- MLCVMMLLFSAIASFPVSAQSKDQ — lower, 5.6
- MFNRLFRVCFLAALIMAFTLPNSSYAQKP — lower, 2.08
- MKLAKRVSALTPSTTLAITAKVKEL — higher, 6.33
- MRQRKKAVFVIMISFLIATVNVNTAHAAID — higher, 6.22
- MKKRLIAPMLLSAASLAFFAMSGSAQAARR — higher, 6.96
- MKQFAITLSVLCALILLVPTLLVIPFQHNKEAMASV — higher, 6.87
- MKIRKILLSSALSFGMLISAVPALGAGT — lower, 3.88
- MFKKLLLATSALTFSLSLVLPLDGHAKAQSV — lower, 1.96
